This passage reports peptide exchange yield results from patent publication US20230241113A1 (IMMATICS BIOTECHNOLOGIES, published 2023).

The assay concerns the target T1, HLA-A*02:01 (human).
T1 construct: captured on streptavidin plates, detected with anti-β2m; also called peptide-receptive MHC molecules; MHC class I
The assay is described as follows: UV-ligand exchange + anti-β2m ELISA; exchange yield grade: ≥10% +, ≥20% ++, ≥50 +++, ≥75% ++++. The method, then:
The individual peptide-MHC complexes were produced by UV-ligand exchange, where a UV-sensitive peptide is cleaved upon UV-irradiation and exchanged with the peptide of interest as analyzed. Only peptide candidates that can effectively bind and stabilize the peptide-receptive MHC molecules prevent dissociation of the MHC complexes. To determine the yield of the exchange reaction, an ELISA was performed based on the detection of the light chain (β2m) of stabilized MHC complexes. The assay was performed as generally described in Rodenko et al. (Rodenko et al., 2006).
96 well MAXISorp plates (NUNC) were coated over night with 2 μg/ml streptavidin in PBS at room temperature, washed 4× and blocked for 1 h at 37° C. in 2% BSA containing blocking buffer. Refolded HLA-A*02:01/MLA-001 monomers served as standards, covering the range of 15-500 ng/ml. Peptide-MHC monomers of the UV-exchange reaction were diluted 100 fold in blocking buffer. Samples were incubated for 1 h at 37° C., washed four times, incubated with 2 μg/ml HRP conjugated anti-β2m for 1 h at 37° C., washed again and detected with TMB solution that is stopped with […]. Absorption was measured at 450 nm. Candidate peptides that show a high exchange yield (preferably higher than 50%, most preferred higher than 75%) are generally preferred for a generation and production of antibodies or fragments thereof, and/or T cell receptors or fragments thereof, as they show sufficient avidity to the MHC molecules and prevent dissociation of the MHC complexes.
Consider TLTSLNILL (also called TLTSLNILL) [altORF-022], for which the peptide exchange yield is not below 75%.
In the case of YLGDSHVLL (also called YLGDSHVLL) [altORF-002] it was not below 75%.
On to FLLVPSPIWQL (also called FLLVPSPIWQL) [altORF-001], for which the peptide exchange yield is not below 75%.
Take GLLTQVHIL (also called GLLTQVHIL) [altORF-049]: the peptide exchange yield is not below 75%.
In the case of LLLALRLSL (also called LLLALRLSL) [altORF-062] it was 10 to 20%; in that of WLIPRQLAAA (also called WLIPRQLAAA) [altORF-042], not below 75%; in that of HLDSMNVSI (also called HLDSMNVSI) [altORF-010], not below 75%.
As for VLSVSAVLGA (also called VLSVSAVLGA) [altORF-030], the figure is 50 to 75%.
As for ALYHQSPLL (also called ALYHQSPLL) [altORF-043], the figure is not below 75%.
As to SLLDKLSGI (also called SLLDKLSGI) [altORF-008], the peptide exchange yield was not below 75%.
As for MVQQEKLFV (also called MVQQEKLFV) [altORF-053], the figure is 50 to 75%; as for FVFISPSFL (also called FVFISPSFL) [altORF-019], 50 to 75%; as for SLLGKPGLTI (also called SLLGKPGLTI) [altORF-060], not below 75%.
As for YVLMTSLLL (also called YVLMTSLLL) [altORF-055], the figure is not below 75%; as for ALHDSPVYL (also called ALHDSPVYL) [altORF-004], not below 75%.
In the case of LSFKRSLSI (also called LSFKRSLSI) [altORF-061] it was 20 to 50%.
For ISVLNLSAI (also called ISVLNLSAI) [altORF-023], the peptide exchange yield is 20 to 50%.
As to KLLDFSTRI (also called KLLDFSTRI) [NUDCD2-001], the peptide exchange yield was not below 75%.
In the case of NLVMPLLHI (also called NLVMPLLHI) [altORF-013] it was 20 to 50%; in that of LMASEGIWESSL (also called LMASEGIWESSL) [altORF-039], 50 to 75%; in that of AIWSTILIA (also called AIWSTILIA) [altORF-041], 20 to 50%.
As for YIYEDEVRL (also called YIYEDEVRL) [altORF-037], the figure is not below 75%; as for FTLPFLVNL (also called FTLPFLVNL) [altORF-038], not below 75%.
As for LAFVSHVLI (also called LAFVSHVLI) [altORF-050], the figure is 20 to 50%.
As to VVLPIVITL (also called VVLPIVITL) [altORF-029], the peptide exchange yield is not below 75%.
As for LLRLTLLPL (also called LLRLTLLPL) [altORF-028], the figure is 20 to 50%; as for LLWEFPSMA (also called LLWEFPSMA) [altORF-027], not below 75%.
As for MLLPWLPKL (also called MLLPWLPKL) [altORF-017], the figure is not below 75%; as for ALLPGVPGL (also called ALLPGVPGL) [altORF-045], not below 75%; as for FQVTRTTGV (also called FQVTRTTGV) [altORF-034], not below 75%.
Consider FASERPPSV (also called FASERPPSV) [altORF-031], for which the peptide exchange yield is not below 75%.
As for KILDEFYNV (also called KILDEFYNV) [altORF-035], the figure is not below 75%; as for VLPWQPLLL (also called VLPWQPLLL) [altORF-059], 20 to 50%.
In the case of SQLEKPETA (also called SQLEKPETA) [altORF-026] it was 50 to 75%; in that of ALLPHAPEAV (also called ALLPHAPEAV) [altORF-009], 50 to 75%; in that of KLWTSLVNL (also called KLWTSLVNL) [altORF-024], not below 75%.
In the case of WITPVIPAL (also called WITPVIPAL) [altORF-040] it was not below 75%; in that of ALLDAEQSPVAL (also called ALLDAEQSPVAL) [altORF-014], not below 75%; in that of IAAGVPNTDA (also called IAAGVPNTDA) [altORF-025], 20 to 50%.
Turning to GLSPDQVFL (also called GLSPDQVFL) [altORF-052], the peptide exchange yield is not below 75%.
As for SLSAWLPSL (also called SLSAWLPSL) [altORF-036], the figure is not below 75%; as for LLIEVSEEL (also called LLIEVSEEL) [altORF-012], not below 75%; as for LLLATLENL (also called LLLATLENL) [altORF-058], not below 75%.
As for VLWDLRPSSLI (also called VLWDLRPSSLI) [altORF-015], the figure is not below 75%; as for LAASTTFLGV (also called LAASTTFLGV) [altORF-057], not below 75%.
For LVWEVVESV (also called LVWEVVESV) [altORF-003], the peptide exchange yield is not below 75%.
As for SLYDVPVGA (also called SLYDVPVGA) [altORF-020], the figure is not below 75%.
In the case of LLNVEPAGA (also called LLNVEPAGA) [altORF-032] it was not below 75%.
In the case of ALLDVLVKL (also called ALLDVLVKL) [COLPDG-001] it was not below 75%; in that of KMMTFFQGL (also called KMMTFFQGL) [altORF-016], not below 75%.
With TISISLSSV (also called TISISLSSV) [altORF-051], the peptide exchange yield is not below 75%.
In the case of FLDEGSLLRL (also called FLDEGSLLRL) [altORF-011] it was not below 75%; in that of AMVEIIPKV (also called AMVEIIPKV) [altORF-044], not below 75%; in that of MLAEIHPKA (also called MLAEIHPKA) [altORF-046], not below 75%.
As for GLASYLDRV (also called GLASYLDRV) [altORF-048], the figure is not below 75%.
As for VLLNSNYPV (also called VLLNSNYPV) [altORF-033], the figure is not below 75%; as for MIISHRALEL (also called MIISHRALEL) [altORF-056], 20 to 50%.
As for IITNLIVNI (also called IITNLIVNI) [altORF-054], the peptide exchange yield fell in the range of 50 to 75%.
In the case of GLEVLDALL (also called GLEVLDALL) [altORF-021] it was 20 to 50%.
As for VLISLPGKV (also called VLISLPGKV) [altORF-018], the figure is 20 to 50%; as for FLWDPRDVVL (also called FLWDPRDVVL) [altORF-047], not below 75%.
